What was measured:
[1] = target: T1, GST-Iab (mouse IP3R1 amino acids 1-343) (Mus musculus, UniProt P11881); test: GST pulldown with GST-Iab; format: binding; conditions: IRBIT in high salt extract
T1 construct: made in house; host or cells: Escherichia coli
Source text: (§1) The cDNAs encoding the full-length and N-terminal region (amino acids 1-104) of IRBIT were subcloned into the Escherichia coli hexahistidine (His) fusion vector pET-23a(+) (Novagen) to generate IRBIT-His and IRBIT(1-104)-His expression vectors, respectively. The same cDNAs were subcloned into the GST fusion vector pGEX-4T-1 (Amersham Pharmacia Biotech) to generate GST-IRBIT and GST-IRBIT(1-104) expression vectors, respectively. The cDNA fragments encoding the amino acids 1-225, 1-343, 341-923, 600-1248, 916-1581 and 1553-1943 of the amino acid sequence (SEQ ID NO: 7) of mouse IP3R1 were inserted into pGEX-KG to generate GST-Ia, GST-Iab, GST-IIab, GST-IIbIIIa, GST-IIIab and GST-IV expression vectors, respectively. The amino acids 1593-2217 of mouse IP3R1 were inserted into pGEX-4T-1 to obtain GST-IV-Va expression vector. These fusion proteins were expressed in Escherichia coli. GST-EL was expressed in Sf9 cells as described above. […]
(§2) For the determination of the IRBIT binding region and the critical amino acid residue of IP3R1, the diluted high salt extract was subjected to pulldown assay as described above with 100 pmol of GST, GST-EL, GST-Ia, GST-Iab, GST-IbIIa, GST-IIab, GST-IIbIIIa, GST-IIIab, GST-IV, GST-IV-Va, K508A or R441Q, and analyzed by Western blotting with anti-IRBIT antibody.

[2] = target: T2, type II phosphatidylinositol phosphate kinase γ (Homo sapiens, UniProt Q8TBX8); test: Co-immunoprecipitation in Cos-7 cells with Myc-PIPKII γ; format: binding; conditions: overexpressing Cos-7 cells
T2 construct: expressed in transfected cells; host or cells: Cos-7
T2 sequence (Q8TBX8 1-421): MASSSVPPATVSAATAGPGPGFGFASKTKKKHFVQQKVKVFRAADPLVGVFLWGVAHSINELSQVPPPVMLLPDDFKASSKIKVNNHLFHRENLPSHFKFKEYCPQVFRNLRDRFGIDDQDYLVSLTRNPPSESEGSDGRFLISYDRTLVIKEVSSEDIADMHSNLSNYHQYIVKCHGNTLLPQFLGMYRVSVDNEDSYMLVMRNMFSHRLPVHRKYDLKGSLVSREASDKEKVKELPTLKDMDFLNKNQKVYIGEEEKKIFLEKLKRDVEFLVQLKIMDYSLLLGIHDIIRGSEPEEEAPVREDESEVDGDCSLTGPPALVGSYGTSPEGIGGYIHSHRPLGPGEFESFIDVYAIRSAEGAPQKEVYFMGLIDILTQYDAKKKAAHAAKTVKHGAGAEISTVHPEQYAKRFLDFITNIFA
Protocol: (§3) (A and B) IRBIT was transfected into Cos-7 cells with Myc-tagged type II phosphatidylinositol phosphate kinase α, β or γ (PIPKII α, β or γ). After two days, cells were lysed in lysis buffer, followed by centrifugation (100,000×g, 30 min). The supernatants were incubated with 3 μg of anti-IRBIT antibody, rabbit IgG, mouse anti-Myc antibody, or mouse IgG for 1 h at 4° C. After adding 5 μl of Protein G beads and another 1-h incubation, the beads were washed five times with lysis buffer and analyzed by Western blotting with anti-IRBIT antibody or HRP conjugated anti-Myc antibody. Immunoprecipitation of Myc-PIPKII α, β or γ with anti-Myc antibody co-precipitated IRBIT (A). In the reciprocal experiments, immunoprecipitation of IRBIT with anti-IRBIT antibody precipitated Myc-PIPKII α, β or γ.
as §3, with “IRBIT” for “(A and B) IRBIT”, “antibody.” for “antibody. Immunoprecipitation of Myc-PIPKII α, β or γ with anti-Myc antibody co-precipitated IRBIT (A). In the reciprocal experiments, immunoprecipitation of IRBIT with anti-IRBIT antibody precipitated Myc-PIPKII α, β or γ.”

[3] = target: T3, K508A mutant of GST-IbIIa (Mus musculus, UniProt P11881, K508A); test: GST pulldown with K508A; format: binding; conditions: IRBIT in high salt extract
T3 construct: GST-IbIIa (amino acids 224-604 of mouse IP3R1) and its site-directed mutants K508A and R441Q; made in house
Source text: as §1, §2

[4] = S-adenosylhomocysteine hydrolase activity in the hydrolytic direction; format: biochemical; conditions: recombinant protein expressed in Escherichia coli; hydrolysis direction
Protocol: The S-adenosylhomocysteine hydrolase activity in the hydrolytic direction of recombinant IRBIT-His (open circle), GST-IRBIT (triangle), GST (square), and S-adenosylhomocysteine hydrolase (closed circle) were measured according to the known method (43). Results are shown as the mean±standard deviation from three independent experimental results.
To assay S-adenosylhomocysteine hydrolase activity in the hydrolytic direction, the color developed by the reaction between the product (Homocysteine) and 5,5′-dithiobis (2-nitrobenzoic acid) (Sigma) was measured spectroscopically using the purified IRBIT-His (3.0 μg), GST-IRBIT (4.3 μg), GST (1.3 μg) and rabbit S-adenosylhomocysteine hydrolase (Sigma) (2.4 μg), according to the known method (43). Absorbance at 412 nm was measured 0, 5, 20 and 60 minutes later using a DU 640 spectrophotometer (Beckman). Results are shown as the mean±standard deviation from three independent experiments (FIG. 2).

[5] = target: T4, GST-IbIIa (IP3-binding region of mouse IP3R1) (Mus musculus, UniProt P11881); test: GST pulldown with GST-IbIIa; conditions: IRBIT in high salt extract
T4 construct: GST-IbIIa (amino acids 224-604 of mouse IP3R1) and its site-directed mutants K508A and R441Q; made in house
Source text: as §1, §2

[6] = target: T5, GST-IIab (mouse IP3R1 amino acids 341-923) (Mus musculus, UniProt P11881); test: GST pulldown with GST-IIab; format: binding; conditions: IRBIT in high salt extract
T5 construct: made in house; host or cells: Escherichia coli
Source text: as §1, §2

T5 sequence (P11881 341-923): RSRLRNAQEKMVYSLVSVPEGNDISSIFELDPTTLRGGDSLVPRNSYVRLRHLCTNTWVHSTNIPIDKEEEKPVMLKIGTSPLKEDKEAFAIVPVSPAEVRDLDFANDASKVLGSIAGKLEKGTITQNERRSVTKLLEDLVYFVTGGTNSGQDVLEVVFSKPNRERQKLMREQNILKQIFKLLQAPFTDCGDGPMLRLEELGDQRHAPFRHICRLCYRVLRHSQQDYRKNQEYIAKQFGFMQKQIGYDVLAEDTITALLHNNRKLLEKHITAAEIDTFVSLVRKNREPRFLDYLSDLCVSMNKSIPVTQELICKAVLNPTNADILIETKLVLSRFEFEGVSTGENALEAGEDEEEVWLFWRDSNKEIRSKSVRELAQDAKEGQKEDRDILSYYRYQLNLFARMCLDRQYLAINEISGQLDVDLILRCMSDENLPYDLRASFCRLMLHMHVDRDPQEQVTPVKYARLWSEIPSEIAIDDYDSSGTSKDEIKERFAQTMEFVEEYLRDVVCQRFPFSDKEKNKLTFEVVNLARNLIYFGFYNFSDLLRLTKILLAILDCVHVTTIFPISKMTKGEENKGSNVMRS
T4 sequence (P11881 224-604): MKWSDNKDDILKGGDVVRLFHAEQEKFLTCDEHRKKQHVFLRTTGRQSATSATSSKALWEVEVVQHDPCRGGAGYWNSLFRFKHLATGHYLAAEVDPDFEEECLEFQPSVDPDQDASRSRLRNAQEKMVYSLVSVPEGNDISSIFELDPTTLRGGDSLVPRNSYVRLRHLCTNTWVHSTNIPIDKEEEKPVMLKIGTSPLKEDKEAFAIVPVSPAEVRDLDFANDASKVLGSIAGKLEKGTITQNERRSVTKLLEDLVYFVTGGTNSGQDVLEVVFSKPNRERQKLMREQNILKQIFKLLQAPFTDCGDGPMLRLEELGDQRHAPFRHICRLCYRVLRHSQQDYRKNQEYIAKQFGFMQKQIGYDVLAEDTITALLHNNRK
T1 sequence (P11881 1-343): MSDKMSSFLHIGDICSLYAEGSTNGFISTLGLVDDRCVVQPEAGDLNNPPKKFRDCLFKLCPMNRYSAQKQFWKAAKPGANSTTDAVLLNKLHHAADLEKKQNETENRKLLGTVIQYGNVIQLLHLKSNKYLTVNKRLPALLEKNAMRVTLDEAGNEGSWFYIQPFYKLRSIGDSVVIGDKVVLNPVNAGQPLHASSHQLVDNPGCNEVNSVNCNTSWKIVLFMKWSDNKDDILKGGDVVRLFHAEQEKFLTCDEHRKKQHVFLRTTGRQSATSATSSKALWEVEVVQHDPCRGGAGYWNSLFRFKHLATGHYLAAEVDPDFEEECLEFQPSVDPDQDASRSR
T3 sequence (P11881 224-604 K508A): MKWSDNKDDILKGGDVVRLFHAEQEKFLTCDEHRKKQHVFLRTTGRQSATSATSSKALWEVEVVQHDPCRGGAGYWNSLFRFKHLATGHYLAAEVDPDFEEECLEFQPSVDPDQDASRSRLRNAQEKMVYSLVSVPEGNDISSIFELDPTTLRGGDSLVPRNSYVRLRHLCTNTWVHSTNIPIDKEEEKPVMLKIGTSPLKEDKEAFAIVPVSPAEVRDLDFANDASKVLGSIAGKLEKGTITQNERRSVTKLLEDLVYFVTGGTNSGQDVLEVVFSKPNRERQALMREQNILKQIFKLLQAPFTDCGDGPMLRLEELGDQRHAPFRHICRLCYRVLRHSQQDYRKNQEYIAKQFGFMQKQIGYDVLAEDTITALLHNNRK

B1: IRBIT: novel IP3 receptor-binding protein of 530 amino acids, SEQ ID NO: 1 (protein, listed as Mus musculus)
chain: MSMPDAMPLPGVGEELKQAKEIEDAEKYSFMATVTKAPKKQIQFADDMQEFTKFPTKTGRRSLSRSISQSSTDSYSSAASYTDSSDDEVSPREKQQTNSKGSSNFCVKNIKQAEFGRREIEIAEQDMSALISLRKRAQGEKPLAGAKIVGCTHITAQTAVLIETLCALGAQCRWSACNIYSTQNEVAAALAEAGVAVFAWKGESEDDFWWCIDRCVNMDGWQANMILDDGGDLTHWVYKKYPNVFKKIRGIVEESVTGVHRLYQLSKAGKLCVPAMNVNDSVTKQKFDNLYCCRESILDGLKRTTDVMFGGKQVVVCGYGEVGKGCCAALKALGAIVYITEIDPICALQACMDGFRVVKLNEVIRQVDVVITCTGNKNVVTREHLDRMKNSCIVCNMGHSNTEIDVTSLRTPELTWERVRSQVDHVIWPDGKRVVLLAEGRLLNLSCSTVPTFVLSITATTQALALIELYNAPEGRYKQDVYLLPKKMDEYVASLHLPSFDAHLTELTDDQAKYLGLNKNGPFKPNYYRY
In the case of B1, the “interaction with GST-Iab” value [1] is reported as “did not interact”, the “interaction with PIPKII γ” value [2] is reported as “interacted” and the “binding to K508A” value [3] is reported as “did not bind”. For the same molecule, the S-adenosylhomocysteine hydrolase activity [4] was “no S-adenosylhomocysteine hydrolase activity”, the “binding to GST-IbIIa” value [5] was “to the same extent as GST-EL” and the “interaction with GST-IIab” value [6] was “did not interact”.
